Test results from PMC11357854.

Legend:
[1] = biological target: PDK1 1-556 (UniProt O15530); experiment: AlphaScreen GST-PRK2 / His-PDK1; details: reference: wild type; sites T958
[2] = biological target: PDK1 catalytic domain, 50-359 (UniProt O15530); experiment: AlphaScreen GST-PRK2 / His-PDK1; details: reference: wild type; sites T958

Substance	binding against the reference [1]	binding against the reference [2]
PRK2 (PKN2) 1-984 (from UniProt Q16513) T958A	stronger	stronger
PRK2 (PKN2) catalytic domain, 643-984 (from UniProt Q16513) T958A	–	stronger
